Data on two molecules can be found in US20130338033A1, “Diagnostic and Prognostic Markers for Metastasis” (VIRGINIA COMMONWEALTH UNIVERSITY, priority 2011, published 2013).

The test system of one experiment is IGFBP-2. Put plainly: IGFBP-2 ELISA in conditioned media of FM-516 cells infected with Ad.5/3-mda-9. The format is cell-based, human. Conditions: Ad.5/3-mda-9, 1-5 μM (FIG. 4F).
The test system of experiment [1] is HuVECs. The experiment in a line: Capillary-like tube formation by HuVECs on Matrigel. As to conditions: HuVECs treated with rhIGFBP-2 (FIG. 3D). Format: cell-based, human. As for the experimental part:
Tube formation assays were performed as described previously (28) using an In Vitro Angiogenesis Assay Kit (Chemicon). The degree of network formation was quantified using the provider's instruction.

A further experiment has as its system VEGF-A. Put plainly: VEGF-A expression in HuVECs (real-time PCR, ELISA). The format is cell-based, human. Conditions: HuVECs stimulated with rhIGFBP-2 (FIG. 5A). As for the experimental part:
(§1) FIG. 5A-G. IGFBP-2 upregulates the expression of vascular endothelial growth factor (VEGF-A) through the AKT pathway in HuVECs. a) The expression of VEGF-A mRNA (top panel) and protein (bottom panel) were measured by real-time PCR and ELISA, respectively, after treating HuVECs with the indicated doses of rhIGFBP-2. Data represents Mean±S.D. b) HuVECs were transfected with VEGF-A promoter luciferease reporter plasmid and treated with the indicated concentrations of rhIGFBP-2. 48 h after transfection, cells were harvested for luciferase assays as described in Materials and Methods. c) HuVECs (1×10^6 cells) were treated or untreated with the specified doses of rhIGFBP-2 for the indicated times and expression of pAKT and AKT was analyzed by Western blotting. d) HuVECs were pre-treated with LY294002 (30 min) and then treated with rhIGFBP-2. Top panel, analysis of the expression of pART and AKT by Western blotting. Bottom panel, analysis the expression of VEGF-A by ELISA in the CM. e) HuVECs were treated with rhIGFBP-2 together with anti-αVβ3 integrin antibody or anti-mouse IgG as control. Top panel, analysis of expression of pAKT and AKT by Western blotting. Bottom panel, analysis of expression of VEGF-A by ELISA in the CM. f & g) HuVECs were treated as in “e” and CM was used to analyze tube formation […] and neovascularization in CAM (g). […]

Experiment [2] concerns HuVECs. The experiment in a line: HuVEC migration through Matrigel. Format: cell-based, human. Conditions: HuVECs treated with rhIGFBP-2 (FIG. 3C). From the text:
FIG. 2A-G. Effect of mda-9/syntenin on the angiogenic phenotype of human vascular endothelial cells (HuVECs). a) Time course analysis of growth of HuVECs in co-culture with either C8161.9-con-sh or C8161.9-shmda-9 clones. b) Analysis of tube formation by HuVECs co-cultured with C8161.9-con-sh or C8161.9-shmda-9 clones on Matrigel coated plates grown in serum-starved media conditions. Left panel, photomicrograph, Right panel, graphical representation of quantification of tube formation. Data represents Mean±S.D. c) HuVEC migration towards melanoma cells. […] HuVECs migration was quantified and graphical representation is provided in the lower panel. […] The assay was scored after 18 h. Photomicrograph (Left panel) and graphical quantification of migration (Right panel) is presented. […] Left panel, photomicrograph, Right panel, graphical representation of quantitation of tube formation. […]
FIG. 3 A-H. Pro-angiogenic activity of IGFBP-2. a) Top panel, an antibody-based array comparing the expression levels of regulators of angiogenesis in CM from C8161.9 con-sh and C8161.9-shmda-9 clones was performed as described in Materials and Methods. […] Data represents Mean±S.D. c, d & e) HuVECs were treated with rhIGFBP-2 with or without neutralizing antibody (NA) and migration (c), tube formation (d) and vascularization in CAM (e) were analyzed. […] Tumor weight was measured at the end of the study. […]

The subject of another experiment is VEGF-A promoter. The experiment in a line: VEGF-A promoter luciferase reporter assay in HuVECs. Format: cell-based, human. Conditions: HuVECs treated with rhIGFBP-2, 48 h after transfection (FIG. 5B). How it is done:
as §1

Another experiment concerns AKT. Put plainly: AKT activation (pAKT Western blotting) in HuVECs. Format: cell-based, human. As to conditions: rhIGFBP-2 treatment of HuVECs (FIG. 5C). How it is done:
as §1

Experiment [3] has as its system HuVECs. The experiment in a line: HuVEC proliferation (growth kinetics, trypan blue dye exclusion). The format is cell-based, human. Conditions: HuVECs treated with rhIGFBP-2 (FIG. 3B). As for the experimental part:
FIG. 3 A-H. Pro-angiogenic activity of IGFBP-2. a) Top panel, an antibody-based array comparing the expression levels of regulators of angiogenesis in CM from C8161.9 con-sh and C8161.9-shmda-9 clones was performed as described in Materials and Methods. Bottom panel, graphical representation of the band intensity quantified by densitometry. b) HuVECs were cultured in the presence of recombinant human IGFBP-2 (rhIGFBP-2) protein alone or with neutralizing antibody (NA) and growth kinetics were determined by trypan blue dye exclusion as described in Materials and Methods. Data represents Mean±S.D. c, d & e) HuVECs were treated with rhIGFBP-2 with or without neutralizing antibody (NA) and migration (c), tube formation (d) and vascularization in CAM (e) were analyzed. Data represents Mean±S.D. f) C8161.9 cells were transfected with either scrambled RNA (si-con) or si-IGFBP-2 and CM were analyzed for tube formation on Matrigel (upper panel) and vascularization in CAM (lower panel). g) Pooled clones of C8161.9 cells stably expressing shIGFBP-2 were established and assessed for tumor generation ability in athymic nude mice (n=5, repeated three times). […] Tumor weight was measured at the end of the study. Data represents Mean±S.D. In panel c), d) and g), italicized letters indicate significant differences between groups assessed by Student's t-test (p<0.05). […]

Experiment [4] relates to chicken chorioallantoic membrane (CAM). Put plainly: Chorioallantoic membrane (CAM) neovascularization assay. Format: in vivo. As to conditions: HuVECs treated with rhIGFBP-2 (FIG. 3E). As for the experimental part: To detect in vivo angiogenesis, we performed CAM assays as described (28). Either cells or CM in a collagen sponge were implanted onto the CAM at day 8 of fertilization. At day 12, CAMs were fixed with 10% formalin; the neovasculature was examined and photographed.
Fertilized chicken eggs (10 eggs per group) was incubated under routine conditions and a square window was opened in the egg shell at the third day of incubation, after removal of 2-3 ml of albumen to detach the shell from the developing CAM. The window was sealed with a glass of the same size and the eggs were returned to the incubator. Either cells or conditioned media with collagen sponge was implanted onto the CAM at day 8 of incubation. At day 12, CAMs were fixed with 10% formalin the neovasculature was examined and photographed.

Where only a bound is given, the exact number is not on record here.

For `CC(C)(C)n1nc(-c2ccc(Cl)cc2)c2c(N)ncnc21` [PP-2], the “mda-9/syntenin-induced IGFBP-2 expression” value in the experiment on IGFBP-2 is on record as “dose-dependent decrease”.

B1: rhIGFBP-2: recombinant human IGFBP-2 protein (protein, UniProt P18065 36-325, looked up)
Insulin-like growth …: AEVLFRCPPCTPERLAACGPPPVAPPAAVAAVAGGARMPCAELVREPGCGCCSVCARLEGEACGVYTPRCGQGLRCYPHPGSELPLQALVMGEGTCEKRRDAEYGASPEQVADNGDDHSEGGLVENHVDSTMNMLGGGGSAGRKPLKSGMKELAVFREKVTEQHRQMGKGGKHHLGLEEPKKLRPPPARTPCQQELDQVLERISTMRLPDERGPLEHLYSLHIPNCDKHGLYNLKQCKMSLNGQRGECWCVNPNTGKLIQGAPTIRGDPECHLFYNEQQEARGVHTQRMQ
B1: the HuVEC tube formation entry with HuVECs [1] is reported as “significantly stimulated”. Further, the “VEGF-A expression, both RNA and protein” value in the experiment with VEGF-A was “dose-dependently up-regulated”. In addition, the HuVEC migration entry with HuVECs [2] is given as “significantly stimulated”. Also, the VEGF-A promoter activity result with VEGF-A promoter is reported as “dose-dependently up-regulated”. For the same molecule, the “time to AKT activation” value in the experiment on AKT is reported as at most 15 min. Besides, in the experiment on HuVECs [3], the HuVEC proliferation result was “significantly stimulated”. The “vascularization in CAM” value in experiment [4] is recorded as “significant vascularization”.
